Measured values reported in US20180142032A1.

Key:
[1] = target: LAMP1::histag (human) (UniProt P11279); assay: competition ELISA; H4A3 0.06 mg/L read with anti-mouse IgG; competitor chMAb1 15 mg/L
[2] = target: LAMP1::histag (human) (UniProt P11279); assay: SPR (BIAcore 2000)
[3] = target: LAMP1::histag (human) (UniProt P11279); assay: competition ELISA; H4A3 0.06 mg/L read with anti-mouse IgG; competitor chMAb2 15 mg/L
[4] = target: LAMP1::histag (human) (UniProt P11279); assay: competition ELISA; H4A3 0.06 mg/L read with anti-mouse IgG; competitor chMAb3 15 mg/L
[5] = target: LAMP1::histag (human) (UniProt P11279); assay: SPR (BIAcore 2000), mAb captured by anti-Fc, LAMP1 injected 1 to 256 nM

LAMP1::histag (human), sequence (P11279 other isoform, or with tags, fused parts or gaps): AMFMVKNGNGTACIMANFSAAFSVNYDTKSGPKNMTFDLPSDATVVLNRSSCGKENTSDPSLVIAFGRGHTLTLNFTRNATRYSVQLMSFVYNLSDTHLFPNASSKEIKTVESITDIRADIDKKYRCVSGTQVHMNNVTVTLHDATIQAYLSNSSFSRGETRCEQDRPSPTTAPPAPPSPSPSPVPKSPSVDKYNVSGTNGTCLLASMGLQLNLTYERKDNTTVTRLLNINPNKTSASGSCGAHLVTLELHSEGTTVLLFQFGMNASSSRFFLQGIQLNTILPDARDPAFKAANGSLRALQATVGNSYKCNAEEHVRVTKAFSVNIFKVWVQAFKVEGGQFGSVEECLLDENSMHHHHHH

percentage of signal compared to mAb control alone [1]: 98%
Kd [2]: 100 nM
percentage of signal compared to mAb control alone [3]: 57%
percentage of signal compared to mAb control alone [4]: 11%
Kd [5]: 105 nM
koff [5]: 0.00609 s⁻¹
kon [5]: 58000 M⁻¹ s⁻¹
Substance: H4A3 (BioLegend 328602) (antibody)
